Data published in article PMC5502743.
Where two headings read alike, the source gives them in different places.

What was measured:
Experiment in all cases: single-molecule FRET imaging
[1] = biological target: Cy3B*/Cy7*-labeled β2Δ6-148C/266C (full-length, minimal cysteine β2 adrenergic receptor mutant) (UniProt P07550)
[2] = biological target: Cy3B*/Cy7*-labeled β2Δ6-148C/266C (full-length, minimal cysteine β2 adrenergic receptor mutant) (UniProt P07550); remark: listed apart in the source
[3] = biological target: Cy3B*/Cy7*-labeled β2Δ6-148C/266C (full-length, minimal cysteine β2 adrenergic receptor mutant) (UniProt P07550); remark: listed apart in the source
[4] = biological target: Cy3B*/Cy7*-labeled β2Δ6-148C/266C (full-length, minimal cysteine β2 adrenergic receptor mutant) (UniProt P07550); remark: listed apart in the source
[5] = biological target: Cy3B*/Cy7*-labeled β2Δ6-148C/266C (full-length, minimal cysteine β2 adrenergic receptor mutant) (UniProt P07550); remark: listed apart in the source
[6] = biological target: Cy3B*/Cy7*-labeled β2Δ6-148C/266C (full-length, minimal cysteine β2 adrenergic receptor mutant) (UniProt P07550); remark: listed apart in the source

k (high→low) (transition rate from high- to low-FRET states) [1]: 0.6 s⁻¹ | percent Gs coupling [1]: 5 to 20% | k (high→low) (transition rate from high- to low-FRET states) [2]: 0.7 s⁻¹ | k (high→low) (transition rate from high- to low-FRET states) [3]: 0.7 s⁻¹ | k (high→low) (transition rate from high- to low-FRET states) [4]: 0.7 s⁻¹ | k (high→low) (transition rate from high- to low-FRET states) [5]: 0.4 s⁻¹ | k (high→low) (transition rate from high- to low-FRET states) [6]: 1.1 s⁻¹
Substance: Gs heterotrimer (Gαs, Gβ and Gγ) (from UniProt P63092 1-394; P62873 1-340; P59768 1-71) (complex)
